Reference: patent publication US20240301076A1 (CEPHALON, published 2024)

How the values were obtained:
human CXCR2 [1] = molecular target: T1, human CXCR2 (human, UniProt P25025 1-360); experiment: flow cytometry, transfected Expi293F cells
T1 construct: also called CXC chemokine receptor 2; hCXCR2
T1 sequence: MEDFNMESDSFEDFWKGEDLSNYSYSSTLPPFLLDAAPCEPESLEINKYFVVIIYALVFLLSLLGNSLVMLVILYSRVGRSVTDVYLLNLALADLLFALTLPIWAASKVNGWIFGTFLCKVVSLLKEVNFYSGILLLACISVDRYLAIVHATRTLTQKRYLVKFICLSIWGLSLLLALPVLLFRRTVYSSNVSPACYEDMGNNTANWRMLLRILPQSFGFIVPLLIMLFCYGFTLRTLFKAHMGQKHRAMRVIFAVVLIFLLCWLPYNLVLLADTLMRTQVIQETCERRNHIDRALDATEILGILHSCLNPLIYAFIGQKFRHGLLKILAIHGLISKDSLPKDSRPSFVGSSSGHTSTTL
Protocol: (§1) Harvested cells were resuspended in FACS buffer (1×PBS+0.5% (w/v) bovine serum albumin (BSA)+2 mM EDTA pH 7.2). Approximately 2×10⁵ cells were added per well in a 96-well round-bottomed plate. Cells were pelleted by centrifugation at 400 g for 5 mins at 4° C. and supernatants discarded. 25 μL of each test antibody or control antibody was added to the cells and incubated for 30 minutes at 4° C. Cells were washed twice in 100 μL FACS buffer followed by centrifugation at 400 g for 5 mins at 4° C.
(§2) For detection, 50 μL of secondary antibody (Table 2) was added to relevant samples. Commercially available antibodies that bound to transfected CXCR family members were used as positive controls to ensure that the cells were expressing the receptors. Cells were washed twice in 200 μL of FACS buffer followed by centrifugation at 400 g for 5 mins at 4° C. Before sample acquisition, cells were resuspended in 100 μL of FACS buffer. Samples were acquired using the high throughput sampler on a FACSCanto™ II cytometer (Beckton-Dickinson).
(§3) These antibody variable regions were then generated by gene synthesis and subcloned into mammalian expression vectors as described in General Methods. Antibodies were produced by co-expression of heavy and light chain plasmids in Expi293F™ cells and purified by protein A column chromatography as described in General Methods. Where several heavy and/or light chains were identified from the same hybridoma cells, each heavy chain was paired with each light chain and the resulting antibodies given suffix a, b, c, etc. Purified antibodies were desalted into Sorensen's PBS pH 5.8 and tested by flow cytometry for binding to Expi293F™ cells transfected with human CXCR2 or human CXCR1 and mock transfected Expi293F™ cells.

human CXCR1 = molecular target: T2, human CXCR1 (human, UniProt P25024 1-350); experiment: flow cytometry, transfected Expi293F cells
T2 sequence: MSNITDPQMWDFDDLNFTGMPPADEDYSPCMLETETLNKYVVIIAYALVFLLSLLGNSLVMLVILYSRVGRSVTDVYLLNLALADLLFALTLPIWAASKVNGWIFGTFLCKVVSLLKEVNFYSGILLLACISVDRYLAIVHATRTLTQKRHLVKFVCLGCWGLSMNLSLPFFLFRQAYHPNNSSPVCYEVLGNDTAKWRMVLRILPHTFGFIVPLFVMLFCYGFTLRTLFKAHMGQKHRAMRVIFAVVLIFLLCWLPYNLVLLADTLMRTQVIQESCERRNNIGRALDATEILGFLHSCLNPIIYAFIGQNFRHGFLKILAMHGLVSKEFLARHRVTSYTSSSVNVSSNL
Protocol: as §1, §2, §3

human CXCR2 [2] = molecular target: T1, human CXCR2; experiment: flow cytometry, CXCR2-transfected Expi293F cells
human CXCR2 [3] = molecular target: T1, human CXCR2; experiment: cell-based or functional assay

B1: BKO-4F10 (antibody, human IgG4 S228P, lambda)
heavy: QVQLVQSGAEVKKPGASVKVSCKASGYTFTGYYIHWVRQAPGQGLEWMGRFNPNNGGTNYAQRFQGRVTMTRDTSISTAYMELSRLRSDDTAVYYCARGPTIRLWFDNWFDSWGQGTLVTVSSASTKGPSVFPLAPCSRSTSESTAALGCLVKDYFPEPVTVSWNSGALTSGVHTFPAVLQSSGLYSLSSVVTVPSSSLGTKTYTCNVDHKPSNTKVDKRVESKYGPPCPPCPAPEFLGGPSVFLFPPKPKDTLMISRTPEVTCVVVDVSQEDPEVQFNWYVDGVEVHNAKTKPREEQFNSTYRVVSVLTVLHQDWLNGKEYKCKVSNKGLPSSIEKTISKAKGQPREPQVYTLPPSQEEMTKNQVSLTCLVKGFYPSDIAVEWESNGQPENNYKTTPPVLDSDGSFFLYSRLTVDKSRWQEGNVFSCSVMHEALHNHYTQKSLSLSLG
light: QSALTQPASVSGSPGQSITISCTGTSSDVGGYNYVSWYQQHPGKAPKLMIYDVSNRPSGISNRFSGSKSGNTASLTISGLQAEDEADYYCSSYTSSSTWVFGGGTKLTVLGQPKAAPSVTLFPPSSEELQANKATLVCLISDFYPGAVTVAWKADSSPVKAGVETTTPSKQSNNKYAASSYLSLTPEQWKSHRSYSCQVTHEGSTVEKTVAPTECS
notes: recombinant human IgG4 S228P, lambda
B1: binds (human CXCR2 [1]); no binding (human CXCR1).

B2: BKO-5G6_c (antibody, human IgG4 S228P, lambda)
heavy: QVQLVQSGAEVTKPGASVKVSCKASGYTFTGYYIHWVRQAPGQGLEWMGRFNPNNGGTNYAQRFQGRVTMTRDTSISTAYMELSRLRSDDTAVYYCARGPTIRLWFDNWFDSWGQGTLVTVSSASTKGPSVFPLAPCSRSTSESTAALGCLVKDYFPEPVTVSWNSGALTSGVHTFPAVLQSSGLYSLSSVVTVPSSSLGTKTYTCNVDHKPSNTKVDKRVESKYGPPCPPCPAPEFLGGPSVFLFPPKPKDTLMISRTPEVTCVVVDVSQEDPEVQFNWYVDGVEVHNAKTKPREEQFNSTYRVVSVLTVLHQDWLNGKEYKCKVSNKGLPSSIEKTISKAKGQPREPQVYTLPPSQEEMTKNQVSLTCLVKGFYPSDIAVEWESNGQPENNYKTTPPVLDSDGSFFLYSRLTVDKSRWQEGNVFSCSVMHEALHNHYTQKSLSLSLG
light: QSALTQPASVSGSPGQSITISCTGTSSDVGGYNYVSWYQQHPGKAPKLMIYDVSNRPSGISNRFSGSKSGNTASLTISGLQAEDEADYYCSSYTSSSTWVFGGGTTLTVLGQPKAAPSVTLFPPSSEELQANKATLVCLISDFYPGAVTVAWKADSSPVKAGVETTTPSKQSNNKYAASSYLSLTPEQWKSHRSYSCQVTHEGSTVEKTVAPTECS
notes: as for B1
B2: binds (human CXCR2 [1]); no binding (human CXCR1).

B3: BKO-3D6 (antibody, human IgG4 S228P, lambda, V domains shown)
VH: EVQLVESGGDLVQPGRSLRLSCAASGFTFDDYAMHWVRQAPGKGLKWVSGITWNSGNKRYADSVKGRFTISRDNAKNSLYLQMNSLRAEDTALYYCAKDMKGSGTYFPAFDYWGQGTLVTVSS
VL: not shown
notes: as for B1
B3: binds (human CXCR2 [1]); no binding (human CXCR1).

B4: BKO-4A8 variant VL N94Y (antibody, human IgG4 S228P, lambda, V domains shown)
VH: EVQLLESGGGLVQPGGSLRLSCAASGFTFSSSTMSWVRQAPGKGLEWVSAISGRGRNTYYADSVKGRFTISRDNSRNTLYLQMNSLRAEDTAVYYCAIQMGYWGQGILVTVSS
VL: QSALTQPPSASGSPGQSVTISCIGTSSDVGGYNYVSWYQQHPDKAPKLMIYEVNKRPSGVPDRFSGSKSGNTASLTVSGLQAEDEADYYCSSYAGYNNFGVFGGGTKLTVLG
notes: IgG4 S228P, lambda; parental heavy chain; also called 4A8 VL N94Y
In the case of B4, the “Fold change in binding relative to BKO-4A8” value (human CXCR2 [2]) is reported as 0.5 fold, the “IC50, CXCL1, Tango assay” value (human CXCR2 [3]) is reported as 0.164 nM and the “IC50, CXCL8, Tango assay” value (human CXCR2 [3]) is reported as 0.105 nM.

B5: BKO-1D1 (antibody, human IgG4 S228P, lambda, V domains shown)
VH: EVQLLESGGGLVQPGGSLRLSCAASKLTFKNSAMSWVRQAPGKGLEWVSAITGSGGRTYYADSVKGRFTISRDNSKNTLYLQMNSLRAEDTAIYYCAIQMGYWGQGILVTVSS
VL: QSALTQPPSASGSPGQSVTISCTGTSSDVGGYNYVSWYQQHPGKAPKLMIYEVNKRPSGVPARFSGSKSGNTASLTVSGLQAEDEADYYCSSYAGSNNFGVFGGGTKLTVLG
notes: as for B1
B5: binds (human CXCR2 [1]); no binding (human CXCR1).

B6: BKO-5G11 (antibody, human IgG4 S228P, lambda, V domains shown)
VH: EVQLLESGGGLVQPGGSLRLSCAVSGFTFSNYAMTWVRQAPGKGLEWVSAISGRGSRTYYADSVKGRFTISRDTSKNTLYLQMNSLRAEDTAVYYCAKMDYWGQGTLVTVSS
VL: QSALTQPPSASGSPGQSVTISCTGTSSDVGGYNYVSWYQQHPGKAPKLMIFEVSKRPSGVPDRFSGSKSGNTASLTVSGLQAEDEADYYCSSYAGSNNFGVFGGGTKLTVLG
notes: as for B1
B6: binds (human CXCR2 [1]); no binding (human CXCR1).

B7: BKO-1H3 (antibody, human IgG4 S228P, lambda, V domains shown)
VH: EVQLLESGGGLVQPGGSLRLSCAASGFTLSRSSTSWVRQTPGKGLEWVSAISGSGGRTYYADSVKGRFTISRDNSKNTLYLQMNSLRAEDTAVYYCAIQLGYWGQGILVTVSS
VL: QSALTQPASVSGSPGQSITISCTGTSSDVGGYNYVSWYQQHPGKAPKLMIYDVSNRPSGVSNRFSGSKSGNTASLTISGLQAEDEADYYCSSYTSSSTWVFGGGTKLTVLG
notes: as for B1
B7: binds (human CXCR2 [1]); no binding (human CXCR1).

B8: BKO-2D8 (antibody, human IgG4 S228P, lambda, V domains shown)
VH: EVQLLESGGGLVQPGGSLRLSCAASGYTFTSSTMSWVRQAPGKGLEWVTAISGRGGRTYYADSVKGRFTISRDNSKNTLYLQMNSLRAEDTAVYYCAIQLGNWGQGILVTVSS
VL: QSALTQPPSASGSPGQSVTISCTGTSSDIGGYNYVSWYQQHPGKAPKLVIYEVNMRPSGVPARFSGSKSGNTASLTVSGLQAEDEADYYCSSYAGNDNFGVFGGGTKLSVLG
notes: as for B1
B8: binds (human CXCR2 [1]); no binding (human CXCR1).

B9: BKO-3F4 (antibody, human IgG4 S228P, lambda, V domains shown)
VH: EVQLLESGGGLVQPGGSLRLSCAASGLTFSSYAMSWVRQAPGKGLEWVSAISGSGGKIYYADSVKGRFTISRDNSKNTLYLQMNSLRAEDTAVYYCAIQVGYWGQGTLVTVSS
VL: QSALTQPPSASGSPGQSVTMSCTGTSSDVGGYNYVTWYQQHPGKAPKLMIYEVSKRPSGVPARFSGSKSGNTASLTVSGLQAEDEADYYCSSYAGPNNFGVFGGGTKLTVLG
notes: as for B1
B9: binds (human CXCR2 [1]); no binding (human CXCR1).

B10: BKO-8H8_b (antibody, human IgG4 S228P, lambda, V domains shown)
VH: EVQLLESGGGLVQPGGSLRLSCAASGLTVSSYAMSWVRQAPGKGLEWVSAISGSGGKIYYADSVKGRFTISRDNSKNTLYLQMNSLSAEDTAVYYCAIQVGYWGQGTLVTVSS
VL: QSALTQPPSASGSPGQSVTMSCTGTSSDVGGYNYVTWYQQHPGKAPKLVIYEVSKRPSGVPVRFSGSKSGNTASLTVSGLQAEDEADYYCSSYAGPNNFGIFGGGTKLTVLG
notes: as for B1
B10: binds (human CXCR2 [1]); no binding (human CXCR1).

B11: BKO-4A8 variant VL N95aQ (antibody, human IgG4 S228P, lambda, V domains shown)
VH: EVQLLESGGGLVQPGGSLRLSCAASGFTFSSSTMSWVRQAPGKGLEWVSAISGRGRNTYYADSVKGRFTISRDNSRNTLYLQMNSLRAEDTAVYYCAIQMGYWGQGILVTVSS
VL: QSALTQPPSASGSPGQSVTISCIGTSSDVGGYNYVSWYQQHPDKAPKLMIYEVNKRPSGVPDRFSGSKSGNTASLTVSGLQAEDEADYYCSSYAGNNQFGVFGGGTKLTVLG
notes: IgG4 S228P, lambda; parental heavy chain; also called 4A8 VL N95aQ
For B11, the “Fold change in binding relative to BKO-4A8” value (human CXCR2 [2]) was 1 fold, the “IC50, CXCL1, Tango assay” value (human CXCR2 [3]) was 0.213 nM and the “IC50, CXCL8, Tango assay” value (human CXCR2 [3]) was 0.084 nM.

B12: BKO-1B10 (antibody, human IgG4 S228P, lambda, V domains shown)
VH: QLQLQESGPGLVKPSETLSLTCTVSGGSIRTSSYYWGWIRQPPGKGLEYIGSIYYSGTTYYNPSLKSRVTMSVDTSKNQFSLKLSSVTAADTAVYYCARHGRVREVPPFDYWGQGTLVTVSS
VL: SSELTQDPAVSVALGQTVRITCQGDSLRYYYASWYQQKPGQAPVLVIYDENSRPSGIPDRFSGSSSGNTASLRITGTQAEDEADYYCNSRDTSGNHWAFGGGTKLTVLG
notes: as for B1
B12: binds (human CXCR2 [1]); no binding (human CXCR1).

B13: BKO-1A1 (antibody, human IgG4 S228P, lambda, V domains shown)
VH: QLQLQESGPGLVKPSETLSLTCTVSGGSIRTSSYYWGWIRQPPGKGLEYIGSIYYSGTTYYNPSLKSRVTMSVDTSKNQFSLKMSSVTAADSAVYYCARHGRVREVPPFDYWGQGTLVTVSS
VL: SSELTQDPAVSVALGQTVRITCQGDSLRYYYASWYQQKPGQAPVLVIYDENSRPSGIPDRFSGSSSGNTASLSITGTQAEDEADYYCNSRDTSGNHWAFGGGTKLTVLG
notes: as for B1
B13: binds (human CXCR2 [1]); no binding (human CXCR1).

B14: BKO-5E8 (antibody, human IgG4 S228P, lambda, V domains shown)
VH: EVQLLESGGGLVQPGGSLRLSCAASGFTFSSYAMSWVRQAPGRGLEWVSAIRGSGAGTYYADSMKGRFTISRDNSKDTLYLLMNSLRAEDTAVYYCSKLEAVSGTGKYFQHWGQGTLVTVSS
VL: SYELTQPPSVSVSPGQTANITCSGDTLGDKFACWYQQKPGQSPVLVIYQDTKRPSGIPERFSGSKSGITATLTISGTQAMDEADFYCQAWNSRGVVFGGGTRLTVLG
notes: as for B1
B14: binds (human CXCR2 [1]); no binding (human CXCR1).

B15: BKO-3A9_b (antibody, human IgG4 S228P, lambda, V domains shown)
VH: QVQVQQSGPGLVKPSQTLSLTCAISGDSVSSNSAAWNWIRQSPSRGLEWLGRTYYRSKWYNDYAVSLKRRITIRPDTSRNHFSLHLSSVTPEDTAVYYCVRAYCGGGSCLDYWGQGTLVTVSS
VL: QSALTQPASASGSPGQSITISCTGTSSDVGNYNRVSWYQQHPGKVPKLMIYEGSKRPSGISNRFSGSKSGNTASLTISGLQPEDEADYFCCSYAGSNTLVFGGGTKLTVLG
notes: as for B1
B15: binds (human CXCR2 [1]); no binding (human CXCR1).
